± gives the uncertainty stated by the source.
B1: Ras GTPase-activating protein 1, residues 281 to 341; numbered along this chain, P20936 (parent)
chain: RRRVRAILPYTKVPDTDEISFLKGDMFIVHNELEDGWMWVTNLRTDEQGLIVEDLVEEVGR
B2: Metastasis-associated protein MTA3, residues 265 to 317; numbered along this chain, Q9BTC8 (parent)
chain: RDEMEEWSASEASLFEEALEKYGKDFNDIRQDFLPWKSLTSIIEYYYMWKTTD

Variants of: B1
Assay: abundance fitness (aPCA) (normalised: wild type 0, dead -1); higher = more abundant; growth selection in yeast, the domain comes from the species named
Conditions: Homo sapiens

Going from RRRVRAILPYTKVPDTDEISFLKGDMFIVHNELEDGWMWVTNLRTDEQGLIVEDLVEEVGY [R61Y] to RRRVRAILPYTKVPDTDEISFLKGDMFIVHNELEDGWMWVTNLRTDEQGLIVEDLVEEVGN [R61N], the abundance fitness rises from -0.076 ± 0.031 to 0.02 ± 0.033.

RRRVRAILPYTKVPDTDEISFLKGDMFIVHNELEDGWMWVTNLRTDEQGLIVEDLVEEVGM [R61M] and RRRVRAILPYTKVPDTDEISFLKGDMFIVHNELEDGWMWVTNLRTDEQGLIVEDLVEEVGL [R61L] are within error of each other in abundance fitness: -0.031 ± 0.065 for the first, 0.039 ± 0.037 for the second.

RRRVRAILPYTKVPDTDEISFLKGDMFIVHNELEDGWMWVTNLRTDEQGLIVEDLVEEVGH [R61H] and RRRVRAILPYTKVPDTDEISFLKGDMFIVHNELEDGWMWVTNLRTDEQGLIVEDLVEEVGW [R61W] are within error of each other in abundance fitness: 0.012 ± 0.032 for the first, 0.07 ± 0.076 for the second.

RRRVRAILPYTKVPDTDEISFLKGDMFIVHNELEDGWMWVTNLRTDEQGLIVEDLVEEVGP [R61P] and RRRVRAILPYTKVPDTDEISFLKGDMFIVHNELEDGWMWVTNLRTDEQGLIVEDLVEEVGF [R61F] are within error of each other in abundance fitness: 0.104 ± 0.046 for the first, 0.021 ± 0.043 for the second.

RRRVRAILPYTKVPDTDEISFLKGDMFIVHNELEDGWMWVTNLRTDEQGLIVEDLVEEVGG [R61G] and RRRVRAILPYTKVPDTDEISFLKGDMFIVHNELEDGWMWVTNLRTDEQGLIVEDLVEEVGT [R61T] are within error of each other in abundance fitness: 0.034 ± 0.048 for the first, 0.092 ± 0.037 for the second.

RRRVRAILPYTKVPDTDEISFLKGDMFIVHNELEDGWMWVTNLRTDEQGLIVEDLVEEVGQ [R61Q] and RRRVRAILPYTKVPDTDEISFLKGDMFIVHNELEDGWMWVTNLRTDEQGLIVEDLVEEVGI [R61I] are within error of each other in abundance fitness: 0.044 ± 0.083 for the first, -0.003 ± 0.029 for the second.

RRRVRAILPYTKVPDTDEISFLKGDMFIVHNELEDGWMWVTNLRTDEQGLIVEDLVEEVGK [R61K] and RRRVRAILPYTKVPDTDEISFLKGDMFIVHNELEDGWMWVTNLRTDEQGLIVEDLVEEVGV [R61V] are within error of each other in abundance fitness: 0.108 ± 0.074 for the first, 0.079 ± 0.039 for the second.

Variants of: B2
Assay: as above
Conditions: Homo sapiens

RDEEEEWSASEASLFEEALEKYGKDFNDIRQDFLPWKSLTSIIEYYYMWKTTD [M4E] and RDEDEEWSASEASLFEEALEKYGKDFNDIRQDFLPWKSLTSIIEYYYMWKTTD [M4D] are within error of each other in abundance fitness: -0.351 ± 0.29 for the first, -0.554 ± 0.21 for the second.

RDETEEWSASEASLFEEALEKYGKDFNDIRQDFLPWKSLTSIIEYYYMWKTTD [M4T] and RDEIEEWSASEASLFEEALEKYGKDFNDIRQDFLPWKSLTSIIEYYYMWKTTD [M4I] are within error of each other in abundance fitness: -0.481 ± 0.18 for the first, -0.211 ± 0.3 for the second.

RDEREEWSASEASLFEEALEKYGKDFNDIRQDFLPWKSLTSIIEYYYMWKTTD [M4R] and RDECEEWSASEASLFEEALEKYGKDFNDIRQDFLPWKSLTSIIEYYYMWKTTD [M4C] are within error of each other in abundance fitness: -0.039 ± 0.15 for the first, -0.307 ± 0.15 for the second.

Compared with RDEKEEWSASEASLFEEALEKYGKDFNDIRQDFLPWKSLTSIIEYYYMWKTTD [M4K], RDEHEEWSASEASLFEEALEKYGKDFNDIRQDFLPWKSLTSIIEYYYMWKTTD [M4H] is higher in abundance fitness: -0.647 ± 0.31 for the first, 0.156 ± 0.27 for the second.

RDEVEEWSASEASLFEEALEKYGKDFNDIRQDFLPWKSLTSIIEYYYMWKTTD [M4V] and RDESEEWSASEASLFEEALEKYGKDFNDIRQDFLPWKSLTSIIEYYYMWKTTD [M4S] are within error of each other in abundance fitness: -0.422 ± 0.19 for the first, -0.273 ± 0.19 for the second.

RDEYEEWSASEASLFEEALEKYGKDFNDIRQDFLPWKSLTSIIEYYYMWKTTD [M4Y] and RDEGEEWSASEASLFEEALEKYGKDFNDIRQDFLPWKSLTSIIEYYYMWKTTD [M4G] are within error of each other in abundance fitness: -0.797 ± 0.41 for the first, -0.947 ± 0.2 for the second.

RDEQEEWSASEASLFEEALEKYGKDFNDIRQDFLPWKSLTSIIEYYYMWKTTD [M4Q] and RDEWEEWSASEASLFEEALEKYGKDFNDIRQDFLPWKSLTSIIEYYYMWKTTD [M4W] are within error of each other in abundance fitness: -0.885 ± 0.35 for the first, -0.666 ± 0.37 for the second.

RDEMVEWSASEASLFEEALEKYGKDFNDIRQDFLPWKSLTSIIEYYYMWKTTD [E5V] and RDEMDEWSASEASLFEEALEKYGKDFNDIRQDFLPWKSLTSIIEYYYMWKTTD [E5D] are within error of each other in abundance fitness: -0.719 ± 0.26 for the first, -0.341 ± 0.37 for the second.

RDEMNEWSASEASLFEEALEKYGKDFNDIRQDFLPWKSLTSIIEYYYMWKTTD [E5N] and RDEMYEWSASEASLFEEALEKYGKDFNDIRQDFLPWKSLTSIIEYYYMWKTTD [E5Y] are within error of each other in abundance fitness: -0.09 ± 0.25 for the first, -0.042 ± 0.47 for the second.

RDEMMEWSASEASLFEEALEKYGKDFNDIRQDFLPWKSLTSIIEYYYMWKTTD [E5M] and RDEMIEWSASEASLFEEALEKYGKDFNDIRQDFLPWKSLTSIIEYYYMWKTTD [E5I] are within error of each other in abundance fitness: -0.209 ± 0.11 for the first, -0.196 ± 0.26 for the second.

RDEMAEWSASEASLFEEALEKYGKDFNDIRQDFLPWKSLTSIIEYYYMWKTTD [E5A] and RDEMCEWSASEASLFEEALEKYGKDFNDIRQDFLPWKSLTSIIEYYYMWKTTD [E5C] are within error of each other in abundance fitness: 0.173 ± 0.22 for the first, -0.341 ± 0.32 for the second.

RDEMKEWSASEASLFEEALEKYGKDFNDIRQDFLPWKSLTSIIEYYYMWKTTD [E5K] and RDEMSEWSASEASLFEEALEKYGKDFNDIRQDFLPWKSLTSIIEYYYMWKTTD [E5S] are within error of each other in abundance fitness: -0.031 ± 0.16 for the first, -0.107 ± 0.12 for the second.

RDEMQEWSASEASLFEEALEKYGKDFNDIRQDFLPWKSLTSIIEYYYMWKTTD [E5Q] and RDEMHEWSASEASLFEEALEKYGKDFNDIRQDFLPWKSLTSIIEYYYMWKTTD [E5H] are within error of each other in abundance fitness: -0.347 ± 0.46 for the first, -0.636 ± 0.37 for the second.

RDEMLEWSASEASLFEEALEKYGKDFNDIRQDFLPWKSLTSIIEYYYMWKTTD [E5L] and RDEMREWSASEASLFEEALEKYGKDFNDIRQDFLPWKSLTSIIEYYYMWKTTD [E5R] are within error of each other in abundance fitness: -0.423 ± 0.076 for the first, -0.341 ± 0.09 for the second.

RDEMTEWSASEASLFEEALEKYGKDFNDIRQDFLPWKSLTSIIEYYYMWKTTD [E5T] and RDEMWEWSASEASLFEEALEKYGKDFNDIRQDFLPWKSLTSIIEYYYMWKTTD [E5W] are within error of each other in abundance fitness: -0.697 ± 0.34 for the first, -0.639 ± 0.24 for the second.

RDWMEEWSASEASLFEEALEKYGKDFNDIRQDFLPWKSLTSIIEYYYMWKTTD [E3W] and RDQMEEWSASEASLFEEALEKYGKDFNDIRQDFLPWKSLTSIIEYYYMWKTTD [E3Q] are within error of each other in abundance fitness: -0.873 ± 0.46 for the first, -0.357 ± 0.32 for the second.

RDRMEEWSASEASLFEEALEKYGKDFNDIRQDFLPWKSLTSIIEYYYMWKTTD [E3R] and RDMMEEWSASEASLFEEALEKYGKDFNDIRQDFLPWKSLTSIIEYYYMWKTTD [E3M] are within error of each other in abundance fitness: -0.147 ± 0.11 for the first, 0.132 ± 0.29 for the second.

— the Human Domainome abundance scans (Beltran et al. 2025)
